Source: patent publication US20240132624A1 (Ablynx, published 2024)
Where a chain is given by its changes, count along the chain named. In names and notes the source's numbering stands. Each block holds one binder with its values, some of them ahead of it.

Tests used:
cyno FcRn/b2M [1] = molecular target: T1, cyno FcRn/b2M (cyno, UniProt Q8SPV9 24-297; Q8SPW0 21-119, biotinylated); assay: SPR pH 6.0; pH 6.0; off-rate of periplasmic extract, cyno FcRn
T1 construct: bought recombinant biotinylated protein (Immunitrack ITF05 or ACRO FCM-C82W5); also called cFcRn; cFcRn/cb2M
T1 sequence (Q8SPV9 24-297 limits assumed, chain 1 of 2): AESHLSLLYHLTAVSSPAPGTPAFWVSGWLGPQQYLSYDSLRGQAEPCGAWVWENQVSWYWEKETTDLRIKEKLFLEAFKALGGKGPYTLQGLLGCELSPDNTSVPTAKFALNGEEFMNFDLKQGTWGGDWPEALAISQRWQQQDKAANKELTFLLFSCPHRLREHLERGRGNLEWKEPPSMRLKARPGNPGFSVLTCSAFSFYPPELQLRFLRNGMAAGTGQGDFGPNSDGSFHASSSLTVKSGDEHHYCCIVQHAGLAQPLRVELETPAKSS
T1 sequence (Q8SPW0 21-119 limits assumed, chain 2 of 2): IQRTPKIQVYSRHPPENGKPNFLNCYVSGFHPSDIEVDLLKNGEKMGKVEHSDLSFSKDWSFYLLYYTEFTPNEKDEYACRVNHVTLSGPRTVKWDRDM
Description: (§1) All kinetic measurements have been performed on ProteOn XPR36 (BioRad Laboratories, Inc.), MASS-2 (Sierra sensors, Gmbh) or SPR-32 (Bruker Corporation). […] The phytip purified periplasmic extracts were diluted 1:10 in running buffer (CPA+150 mM NaCl+0.005% Tw20 at pH 5.5, pH 6.0 or pH 7.4) and injected over the ligand surfaces (association: 120 s at 45 μL/min; dissociation: 600s-3600 s at 45 μL/min). Experiments were carried out at 25° C.

human FcRn/b2M [2] = molecular target: T2, human FcRn/b2M (human, UniProt P61769 21-119, biotinylated); assay: SPR pH 6.0; pH 6.0; off-rate of periplasmic extract, human FcRn
T2 construct: bought recombinant biotinylated protein (ACRO FCM-H82W4 or Immunitrack ITF01); also called hFcRn; hFcRn/hb2M
Description: as §1

human FcRn/b2M [3] = molecular target: T2, human FcRn/b2M; assay: SPR pH 6.0
human FcRn/b2M [4] = molecular target: T2, human FcRn/b2M; assay: SPR pH 6.0; remark: listed apart in the source
cyno FcRn/b2M [5] = molecular target: T1, cyno FcRn/b2M; assay: SPR pH 6.0
human FcRn/b2M [6] = molecular target: T2, human FcRn/b2M; assay: SPR pH 7.4
cyno FcRn/b2M [7] = molecular target: T1, cyno FcRn/b2M; assay: SPR pH 7.4
human FcRn/b2M [8] = molecular target: T2, human FcRn/b2M; assay: SPR; pH 7.4 vs pH 6.0
cyno FcRn/b2M [9] = molecular target: T1, cyno FcRn/b2M; assay: SPR; pH 7.4 vs pH 6.0
human serum albumin [10] = molecular target: T3, human serum albumin (human, UniProt P02768 25-609); assay: SPR pH 6.0
T3 construct: also called HSA
Description: (§2) The affinity of the purified, multivalent ISVD constructs for human and mouse serum albumin (HSA and MSA, respectively) was determined on the ProteOn XPR36 (BioRad Laboratories, Inc.) instrument. […] The ISVD constructs were injected at 6 different concentrations (between 1 and 500 nM) and allowed to associate for 120 s at 45 μL/min and dissociate for 600s-3600s at 45 μL/min. Evaluation of the sensorgrams was based on the 1:1 Langmuir dissociation model simultaneously fitting on and off-rates.

mouse serum albumin [11] = molecular target: T4, mouse serum albumin (mouse, UniProt P07724 25-608); assay: SPR pH 6.0
T4 construct: also called MSA
T4 sequence (P07724 25-608 limits assumed): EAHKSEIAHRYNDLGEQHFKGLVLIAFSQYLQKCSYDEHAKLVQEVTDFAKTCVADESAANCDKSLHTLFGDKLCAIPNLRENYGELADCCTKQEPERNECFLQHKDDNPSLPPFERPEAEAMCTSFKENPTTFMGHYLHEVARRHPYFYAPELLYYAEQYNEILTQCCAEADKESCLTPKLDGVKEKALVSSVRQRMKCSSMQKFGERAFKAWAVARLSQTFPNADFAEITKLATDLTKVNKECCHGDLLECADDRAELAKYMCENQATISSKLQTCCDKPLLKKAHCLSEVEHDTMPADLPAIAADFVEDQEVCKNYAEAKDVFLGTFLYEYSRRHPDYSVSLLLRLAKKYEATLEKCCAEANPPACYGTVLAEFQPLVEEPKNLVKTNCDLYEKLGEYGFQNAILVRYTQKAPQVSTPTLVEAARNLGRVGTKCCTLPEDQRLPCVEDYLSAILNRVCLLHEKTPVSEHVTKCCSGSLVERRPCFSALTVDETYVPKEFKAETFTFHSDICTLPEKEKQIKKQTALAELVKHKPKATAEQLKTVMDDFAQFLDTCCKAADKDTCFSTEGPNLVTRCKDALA
Description: as §2

human serum albumin [12] = molecular target: T3, human serum albumin; assay: SPR pH 7.4
Description: as §2

mouse serum albumin [13] = molecular target: T4, mouse serum albumin; assay: SPR pH 7.4
Description: as §2

cyno FcRn/b2M [14] = molecular target: T1, cyno FcRn/b2M; assay: SPR pH 6.0; pH 6.0; cyno FcRn
Description: (§3) The affinity of the purified, multivalent ISVD constructs for human and cyno FcRn was determined on the MASS-2 (Sierra sensors, Gmbh) instrument, hFcRn/hb2M and cFcRn/cb2M was captured on a Biotin-tag Capture Chip or a High Capacity Amine Chip (pre-immobilized with neutravidin). The ISVD constructs were injected at 6 different concentrations (between 1 and 4000 nM) and allowed to associate for 120 s at 45 μL/min and dissociate for 600 s-3600 s at 45 μL/min. […] Evaluation of the sensorgrams was based on the 1:1 Langmuir dissociation model simultaneously fitting on and off-rates.

human FcRn/b2M [15] = molecular target: T2, human FcRn/b2M; assay: SPR pH 6.0; pH 6.0; human FcRn
Description: as §3

koff (cyno FcRn/b2M [1]): 0.0093 s⁻¹
koff (human FcRn/b2M [2]): 0.012 s⁻¹
B1: T0263018B11 T96E (VHH, name in Kabat numbering)
VHH: EVQLVESGGGVVQPGGSLRLSCAASGFTFSSYAMYWVRQAPGKGLEWVSAISSGGGSTDYADSVKGRFTISRDNSKNTLYLQMNSLRPEDTALYYCAADELYTSLTWYSYWGQGTLVTVSS
notes: FLAG3-His6 tagged

koff (human FcRn/b2M [3]): 0.0032 s⁻¹
Kd (human FcRn/b2M [4]): 77 nM
Kd (cyno FcRn/b2M [5]): 48 nM
Kd (human FcRn/b2M [6]): 5400 nM
Kd (cyno FcRn/b2M [7]): 5000 nM
KD ratio pH 7.4/6.0 (human FcRn/b2M [8]): 70
KD ratio pH 7.4/6.0 (cyno FcRn/b2M [9]): 104
B2: T026301111 (VHH, name in Kabat numbering)
VHH: B1 VHH with S31E, S53Q, E100T
notes: tagless

Kd (human serum albumin [10]): 6.1 nM
Kd (mouse serum albumin [11]): 77 nM
Kd (human serum albumin [12]): 13 nM
Kd (mouse serum albumin [13]): 120 nM
Kd (cyno FcRn/b2M [14]): 670 nM
Kd (human FcRn/b2M [15]): 680 nM
B3: T026301195 (bispecific antibody, name in Kabat numbering)
chain: DVQLVESGGGVVQPGGSLRLSCAASGFTFSEYDMYWVRQAPGKGLEWVSAISSGGGSTDYADSVKGRFTISRDNSKNTLYLQMNSLRPEDTALYYCAADTLYTSLTSYSYWGQGTLVTVSSGGGGSGGGGSGGGGSGGGGSGGGGSGGGGSGGGGSEVQLVESGGGVVQPGGSLRLSCAASGFTFRSFGMSWVRQAPGKGPEWVSSISGSGSDTLYADSVKGRFTISRDNSKNTLYLQMNSLRPEDTALYYCTIGGSLSRSSQGTLVTVSSA
notes: bispecific ISVD construct; also called T0263018B11(E1D, S31E, A33D, W100cS)-35GS-ALB23002-A
